We go through 1 molecule from paper PMC4104026.

The target in this data set is Hfq (His6-tagged) (UniProt P0A6X3 1-102). Kind of data set: EMSA; affinity comparable to GcvB; tRNA competitor; Single-RNA EMSA: 10 mM Tris-HCl pH 7.4, 0.1 mM EDTA, 10 mM NH4Cl, 10 mM NaCl, 10 mM KCl, 1 mg/ml tRNA, 4% glycerol, RT 5 min; ~40 fmol RNA (legend); Methods say. To be noted: protein: recombinant; tags: His6; chain copies: 6; label: 32P; 3' terminator hairpin. A general note: Mobility shift assays separate free from complexed probe on a gel.
Chain of Hfq (His6-tagged) (P0A6X3 whole entry): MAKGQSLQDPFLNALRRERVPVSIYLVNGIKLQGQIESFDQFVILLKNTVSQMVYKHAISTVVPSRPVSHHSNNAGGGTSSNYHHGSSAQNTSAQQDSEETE

B1: AgvB (EcOnc01) sRNA (structured_RNA)
RNA: CGAUAACACAACAAUAUCAGUAUCUCAUGCUAUUGCCCGAACCCAUUCGGGCAUUUUU
On to B1, for which the binding result was “binds”.
